# B1: full-length FGFR3 C228R mutant (CHO) (receptor)
# chain: ESLGTEQRVVGRAAEVPGPEPGQQEQLVFGSGDAVELSCPPPGGGPMGPTVWVKDGTGLVPSERVLVGPQRLQVLNASHEDSGAYSCRQRLTQRVLCHFSVRVTDAPSSGDDEDGEDEAEDTGVDTGAPYWTRPERMDKKLLAVPAANTVRFRCPAAGNPTPSISWLKNGREFRGEHRIGGIKLRHQQWSLVMESVVPSDRGNYTRVVENKFGSIRQTYTLDVLERSPHRPILQAGLPANQTAVLGSDVEFHCKVYSDAQPHIQWLKHVEVNGSKVGPDGTPYVTVLKTAGANTTDKELEVLSLHNVTFEDAGEYTCLAGNSIGFSHHSAWLVVLPAEEELVEADEAGSVYAGILSYGVGFFLFILVVAAVTLCRLRSPPKKGLGSPTVHKISRFPLKRQVSLESNASMSSNTPLVRIARLSSGEGPTLANVSELELPADPKWELSRARLTLGKPLGEGCFGQVVMAEAIGIDKDRAAKPVTVAVKMLKDDATDKDLSDLVSEMEMMKMIGKHKNIINLLGACTQGGPLYVLVEYAAKGNLREFLRARRPPGLDYSFDTCKPPEEQLTFKDLVSCAYQVARGMEYLASQKCIHRDLAARNVLVTEDNVMKIADFGLARDVHNLDYYKKTTNGRLPVKWMAPEALFDRVYTHQSDVWSFGVLLWEIFTLGGSPYPGIPVEELFKLLKEGHRMDKPANCTHDLYMIMRECWHAAPSQRPTFKQLVEDLDRVLTVTSTDEYLDLSAPFEQYSPGGQDTPSSSSSGDDSVFAHDLLPPAPPSSGGSRT
# Molecular target: the molecule itself
# Test: FRET or BRET
protein,measurement,value
B1,stoichiometry N,2
